Key:
[1] = target: the molecule itself; assay: crystal structure
[2] = target: the molecule itself; assay: FRET or BRET

B1: zinc transporter YiiP from Escherichia coli (natural protein, UniProt P69380 1-300, looked up)
chain: MNQSYGRLVSRAAIAATAMASLLLLIKIFAWWYTGSVSILAALVDSLVDIGASLTNLLVVRYSLQPADDNHSFGHGKAESLAALAQSMFISGSALFLFLTGIQHLISPTPMTDPGVGVIVTIVALICTIILVSFQRWVVRRTQSQAVRADMLHYQSDVMMNGAILLALGLSWYGWHRADALFALGIGIYILYSALRMGYEAVQSLLDRALPDEERQEIIDIVTSWPGVSGAHDLRTRQSGPTRFIQIHLEMEDSLPLVQAHMVADQVEQAILRRFPGSDVIIHQDPCSVVPREGKRSMLS
modifications: ethyl mercury phosphate or thiomerosal bound to C127 (crystal derivatives)
- stoichiometry N [1]: 2

B2: YiiP^C127V doubly labeled with Alexa-488 and Alexa-647 (natural protein, Escherichia coli, UniProt P69380 1-300, looked up)
chain: MNQSYGRLVSRAAIAATAMASLLLLIKIFAWWYTGSVSILAALVDSLVDIGASLTNLLVVRYSLQPADDNHSFGHGKAESLAALAQSMFISGSALFLFLTGIQHLISPTPMTDPGVGVIVTIVALIVTIILVSFQRWVVRRTQSQAVRADMLHYQSDVMMNGAILLALGLSWYGWHRADALFALGIGIYILYSALRMGYEAVQSLLDRALPDEERQEIIDIVTSWPGVSGAHDLRTRQSGPTRFIQIHLEMEDSLPLVQAHMVADQVEQAILRRFPGSDVIIHQDPCSVVPREGKRSMLS
modifications: Alexa donor-acceptor pair (Alexa-488, Alexa-647) on cysteine (Cys287)
- binding result [2]: binds
